Among the data in the array DNA melting data of Ke et al. are Tm values, retold here.

This series can be described thus: melting temperature; melt of duplexes. As to conditions: sodium 0.0675 M; strand 1 µM.
Turning to “CGACGTGCTTCATGTGCTG+CAGCACATCAAGCACGTCG ((((((((((.((((((((+)))))))).))))))))))”, the Tm (usually the temperature at which the thermal transition is half complete) came out at 53.3 °C.
For the substance “CGACGTGCCTTATGTGCTG+CAGCACATAAAGCACGTCG ((((((((.((((((((((+)))))))))).))))))))”, the melting temperature (Tm) came out at 53.4 °C.
The figure for “CGACGTGCTCGATGTGCTG+CAGCACATGACGCACGTCG ((((((((...((((((((+))))))))...))))))))” is 47.4 °C; for “CGACGTGCCTCATGTGCTG+CAGCACATCATGCACGTCG ((((((((.(.((((((((+)))))))).).))))))))” it is 47.2 °C.
For “CGACGTGCCTCATGTGCTG+CAGCACATCAAGCACGTCG ((((((((.(.((((((((+)))))))).).))))))))”, the Tm came to 47.9 °C.
The figure for “CGACGTGCGAAATGTGCTG+CAGCACATGCCGCACGTCG (((((((((..((((((((+))))))))..)))))))))” is 56 °C.
“CGACGTGCTCGATGTGCTG+CAGCACATCCCGCACGTCG ((((((((..(((((((((+)))))))))..))))))))”: the Tm is 52.1 °C.
The figure for “CGACGTGCGACATGTGCTG+CAGCACATAGGGCACGTCG ((((((((...((((((((+))))))))...))))))))” is 50 °C; for “CGACGTGCAATATGTGCTG+CAGCACATCTCGCACGTCG ((((((((.(.((((((((+)))))))).).))))))))” it is 48.4 °C.
For “CGACGTGCCCGATGTGCTG+CAGCACATCGTGCACGTCG ((((((((.((((((((((+)))))))))).))))))))” the value was 57.1 °C.
“CGACGTGCGGTATGTGCTG+CAGCACATACGGCACGTCG ((((((((.((((((((((+)))))))))).))))))))”: the melting temperature (Tm) turned out to be 58.5 °C.
As to “CGACGTGCAAAATGTGCTG+CAGCACATACCGCACGTCG ((((((((...((((((((+))))))))...))))))))”, the melting temperature (Tm) stood at 48.1 °C.
For “CGACGTGCGATATGTGCTG+CAGCACATCTTGCACGTCG ((((((((.(.((((((((+)))))))).).))))))))” the value was 51.2 °C; for “CGACGTGCACAATGTGCTG+CAGCACATTTTGCACGTCG (((((((((.(((((((((+))))))))).)))))))))”, 54 °C.
Take “CGACGTGCCGGATGTGCTG+CAGCACATTGAGCACGTCG ((((((((...((((((((+))))))))...))))))))”: the melting temperature (Tm) amounted to 50.8 °C.
For “CGACGTGCTCGATGTGCTG+CAGCACATCGGGCACGTCG ((((((((.((((((((((+)))))))))).))))))))” the value was 62.2 °C; for “CGACGTGCGTCATGTGCTG+CAGCACATTCTGCACGTCG ((((((((...((((((((+))))))))...))))))))”, 49.2 °C; for “CGACGTGCACGATGTGCTG+CAGCACATATAGCACGTCG ((((((((...((((((((+))))))))...))))))))”, 45.6 °C.
For the substance “CGACGTGCATAATGTGCTG+CAGCACATCGTGCACGTCG (((((((((..((((((((+))))))))..)))))))))”, the midpoint of thermal melting (Tm) was found to be 47.6 °C.
For the substance “CGACGTGCATAATGTGCTG+CAGCACATCAGGCACGTCG ((((((((.(.((((((((+)))))))).).))))))))”, the melting temperature (Tm) turned out to be 50.2 °C.
For “CGACGTGCACGATGTGCTG+CAGCACATCTAGCACGTCG ((((((((..(((((((((+)))))))))..))))))))”, the Tm came out at 51.3 °C.
On to “CGACGTGCGCGATGTGCTG+CAGCACATGTAGCACGTCG ((((((((...((((((((+))))))))...))))))))”, for which the melting temperature (Tm) amounted to 52.6 °C.
For “CGACGTGCCTGATGTGCTG+CAGCACATATAGCACGTCG ((((((((...((((((((+))))))))...))))))))” the value was 49.8 °C; for “CGACGTGCGTAATGTGCTG+CAGCACATCGTGCACGTCG ((((((((...((((((((+))))))))...))))))))”, 44.3 °C.
As to “CGACGTGCAAAATGTGCTG+CAGCACATGCAGCACGTCG ((((((((...((((((((+))))))))...))))))))”, the Tm was 53.8 °C.
For “CGACGTGCCCTATGTGCTG+CAGCACATAACGCACGTCG ((((((((..(((((((((+)))))))))..))))))))” the value was 48.7 °C; for “CGACGTGCTACATGTGCTG+CAGCACATGAGGCACGTCG ((((((((..(((((((((+)))))))))..))))))))”, 55.8 °C.
“CGACGTGCCTTATGTGCTG+CAGCACATCACGCACGTCG ((((((((.(.((((((((+)))))))).).))))))))”: the Tm turned out to be 46.7 °C.
With “CGACGTGCCTAATGTGCTG+CAGCACATAGGGCACGTCG (((((((((..((((((((+))))))))..)))))))))”, the midpoint of thermal melting (Tm) was determined as 55.4 °C.
Take “CGACGTGCAATATGTGCTG+CAGCACATACGGCACGTCG ((((((((..(((((((((+)))))))))..))))))))”: the Tm is 49.4 °C.
For “CGACGTGCACAATGTGCTG+CAGCACATCCGGCACGTCG ((((((((...((((((((+))))))))...))))))))” the value was 46.1 °C; for “CGACGTGCGCTATGTGCTG+CAGCACATCACGCACGTCG (((((((((..((((((((+))))))))..)))))))))”, 53.3 °C.
For “CGACGTGCTGGATGTGCTG+CAGCACATACTGCACGTCG ((((((((.(.((((((((+)))))))).).))))))))” the value was 56.3 °C; for “CGACGTGCCTAATGTGCTG+CAGCACATCGCGCACGTCG ((((((((...((((((((+))))))))...))))))))”, 47 °C; for “CGACGTGCAGGATGTGCTG+CAGCACATCCTGCACGTCG (((((((((((((((((((+)))))))))))))))))))”, 66 °C.
The figure for “CGACGTGCGAGATGTGCTG+CAGCACATCGAGCACGTCG ((((((((..(((((((((+)))))))))..))))))))” is 64.5 °C.
Consider “CGACGTGCCGTATGTGCTG+CAGCACATATCGCACGTCG ((((((((..(((((((((+)))))))))..))))))))”, for which the melting temperature (Tm) came to 51.8 °C.
Regarding “CGACGTGCTATATGTGCTG+CAGCACATGTGGCACGTCG ((((((((.(.((((((((+)))))))).).))))))))”, the Tm came out at 53.6 °C.
The figure for “CGACGTGCCGTATGTGCTG+CAGCACATTACGCACGTCG ((((((((...((((((((+))))))))...))))))))” is 50.9 °C; for “CGACGTGCAGAATGTGCTG+CAGCACATCATGCACGTCG (((((((((..((((((((+))))))))..)))))))))” it is 53 °C.
For “CGACGTGCCAGATGTGCTG+CAGCACATTTCGCACGTCG ((((((((.(.((((((((+)))))))).).))))))))”, the Tm came out at 49.6 °C.
For “CGACGTGCCAGATGTGCTG+CAGCACATCTTGCACGTCG ((((((((.((((((((((+)))))))))).))))))))” the value was 57 °C.
Regarding “CGACGTGCGTAATGTGCTG+CAGCACATGTTGCACGTCG ((((((((...((((((((+))))))))...))))))))”, the Tm was 51.7 °C.
Turning to “CGACGTGCAGTATGTGCTG+CAGCACATCAAGCACGTCG ((((((((...((((((((+))))))))...))))))))”, the Tm was found to be 49.6 °C.
As for “CGACGTGCCTTATGTGCTG+CAGCACATTCAGCACGTCG ((((((((...((((((((+))))))))...))))))))”, the Tm came to 49 °C.
Regarding “CGACGTGCCAAATGTGCTG+CAGCACATATTGCACGTCG ((((((((.(.((((((((+)))))))).).))))))))”, the Tm amounted to 48.9 °C.
For “CGACGTGCAGCATGTGCTG+CAGCACATCCTGCACGTCG ((((((((((.((((((((+)))))))).))))))))))”, the melting temperature (Tm) was found to be 53.9 °C.
For “CGACGTGCCTCATGTGCTG+CAGCACATTTTGCACGTCG ((((((((...((((((((+))))))))...))))))))” the value was 46.6 °C.
The figure for “CGACGTGCATGATGTGCTG+CAGCACATACCGCACGTCG ((((((((...((((((((+))))))))...))))))))” is 47.5 °C; for “CGACGTGCTTTATGTGCTG+CAGCACATTGGGCACGTCG ((((((((...((((((((+))))))))...))))))))” it is 49.8 °C.
On to “CGACGTGCGACATGTGCTG+CAGCACATCGCGCACGTCG (((((((((..((((((((+))))))))..)))))))))”, for which the midpoint of thermal melting (Tm) turned out to be 54.1 °C.
For “CGACGTGCCAGATGTGCTG+CAGCACATTCGGCACGTCG (((((((((..((((((((+))))))))..)))))))))” the value was 56.2 °C.
For “CGACGTGCGGTATGTGCTG+CAGCACATGGCGCACGTCG (((((((((..((((((((+))))))))..)))))))))” the value was 59.9 °C.
The figure for “CGACGTGCCCCATGTGCTG+CAGCACATCAGGCACGTCG (((((((((..((((((((+))))))))..)))))))))” is 52.5 °C; for “CGACGTGCTTAATGTGCTG+CAGCACATGATGCACGTCG ((((((((.(.((((((((+)))))))).).))))))))” it is 53 °C; for “CGACGTGCTGCATGTGCTG+CAGCACATTCAGCACGTCG ((((((((((.((((((((+)))))))).))))))))))” it is 57 °C.
On to “CGACGTGCCAGATGTGCTG+CAGCACATACGGCACGTCG (((((((((..((((((((+))))))))..)))))))))”, for which the midpoint of thermal melting (Tm) is 54.7 °C.
As to “CGACGTGCTGAATGTGCTG+CAGCACATACTGCACGTCG ((((((((.(.((((((((+)))))))).).))))))))”, the melting temperature (Tm) was 53.7 °C.
For “CGACGTGCTTCATGTGCTG+CAGCACATAGTGCACGTCG ((((((((...((((((((+))))))))...))))))))” the value was 44.4 °C; for “CGACGTGCCGAATGTGCTG+CAGCACATCGCGCACGTCG ((((((((...((((((((+))))))))...))))))))”, 54.7 °C; for “CGACGTGCCCAATGTGCTG+CAGCACATGTCGCACGTCG ((((((((...((((((((+))))))))...))))))))”, 49.5 °C.
The figure for “CGACGTGCATAATGTGCTG+CAGCACATGAGGCACGTCG ((((((((.(.((((((((+)))))))).).))))))))” is 53.2 °C; for “CGACGTGCTACATGTGCTG+CAGCACATAGTGCACGTCG ((((((((...((((((((+))))))))...))))))))” it is 48.1 °C; for “CGACGTGCATCATGTGCTG+CAGCACATAGAGCACGTCG ((((((((...((((((((+))))))))...))))))))” it is 50.1 °C.
For “CGACGTGCTGAATGTGCTG+CAGCACATTTCGCACGTCG ((((((((..(((((((((+)))))))))..))))))))” the value was 53.1 °C.
Turning to “CGACGTGCGACATGTGCTG+CAGCACATGTTGCACGTCG ((((((((.((((((((((+)))))))))).))))))))”, the midpoint of thermal melting (Tm) came to 60.9 °C.
